Test [1] concerns the target HEWL-Hel-108 (hen) (UniProt P00698). Put plainly: BLI, mAb on AHC biosensor, 100 nM antigen.
For test [2], the target named is HEWL-Full2 (hen) (UniProt P00698). Put plainly: BLI, mAb on AHC biosensor, 100 nM antigen. A general note: Biolayer interferometry detects binding as a change in optical thickness at a sensor tip.
For test [3], the target named is HEWL-Hel-108 (hen) (UniProt P00698). Kind of test: BLI, mAb on AHC biosensor, 100 nM antigen, footnote c bounds the value.
For test [4], the target named is HEWL-Full2 (hen) (UniProt P00698). Described as above.
The target of test [5] is HEWL-Full4 (hen) (UniProt P00698). The test is described as above.
Test [6] concerns the target HEWL-Full8 (hen) (UniProt P00698). The test is described as above.
Test [7] has as its target HEWL-Full2 (hen) (UniProt P00698). Kind of test: BLI, mAb on AHC biosensor, 100 nM antigen, footnote d bounds the value.
Test [8] addresses HEWL-Full4 (hen) (UniProt P00698). Described as above.
Test [9] addresses HEWL-Full8 (hen) (UniProt P00698). Put plainly: BLI, mAb on AHC biosensor, 100 nM antigen, footnote e bounds the value.

As a reminder, the Kd is the concentration at which binding is half-saturated. Higher therefore signals a looser complex. In the case of HyHEL-10 (antibody), the Kd with HEWL-Hel-108 (hen) [1] came to 0.092 nM; with HEWL-Full2 (hen) [2], 150 nM.

In the case of HyHEL-5 (antibody), the Kd with HEWL-Hel-108 (hen) [3] was determined as 0.14 nM; with HEWL-Full2 (hen) [4], 0.14 nM; in the test with HEWL-Full4 (hen) [5], 0.15 nM; with HEWL-Full8 (hen) [6], 0.18 nM.

D1.3 (antibody): the Kd with HEWL-Full2 (hen) [7] stood at 2.9 nM; with HEWL-Full4 (hen) [8], 7.9 nM; with HEWL-Full8 (hen) [9], 12 nM; in the test with HEWL-Hel-108 (hen) [1] it was 5.7 nM.

(Values after patent US20210139542A1.)
